Target: the molecule itself
Experiment: SEC; gel filtration on Superdex-75 PC 3.2/30, 20 mM Na-phosphate pH 7.8, without GdnHCl and at low GdnHCl (below 1.5-2 M), with or without 10 mM OCT; protein 0.1-0.2 mg/ml; monomer to dimer

B1: recombinant bovine odorant-binding protein (natural protein)
chain: AQEEEAEQNLSELSGPWRTVYIGSTNPEKIQENGPFRTYFRELVFDDEKGTVDFYFSVKRDGKWKNVHVKATKQDDGTYVADYEGQNVFKIVSLSRTHLVAHNINVDKHGQTTELTELFVKLNVEDEDLEKFWKLTEDKGIDKKNVVNFLENEDHPHPE
notes: In some samples 10 mM 1-octen-3-ol (OCT) was present; also called bOBP; bOBPwt; source: E. coli BL21(DE3), plasmid pT7-7-bOBP, purified (Ni+-agarose, HisGraviTrap)
stoichiometry N: 2

From publication PMC4841237, “Structure and stability of recombinant bovine odorant-binding protein: II. Unfolding of the monomeric forms” (PeerJ, 2016)
